Test results published in patent US20230066517A1, “Phospholipid Ether Conjugates as Cancer-Targeting Drug Vehicles” (Cellectar Biosciences, Inc., priority 2019, published 2023).
Starred links: 1 amine or outer side, 2 acyl side, 3 side chain; linkers in the order of their positions; H or OH if unused. Non-standard residues stand in square brackets, D forms with d. Residues, ends and D or L forms follow the SMILES beside them. *: point of attachment. X1 = C[N+](C)(C)CCOP(=O)([O-])OCCCCCCCCCCCCCCCCCCc1ccc(C(=O)*)cc1; Dolaproine = CO[C@@H]([C@@H]1CCCN1)[C@@H](C)C(=O)O; Dil = CC[C@H](C)[C@H](NC)[C@@H](CC(=O)O)OC; PABC = O=C(OCc1ccc(N[*:1])cc1)[*:2]; X2 = C[C@@H](N*)[C@@H](O)c1ccccc1; Cit = NC(=O)NCCC[C@H](N)C(=O)O; NMeV = CN[C@H](C(=O)O)C(C)C

Columns and labels:
[1] = Cyprotex Plasma Stability assay, mouse plasma; assay type: in vitro ADME
Protocol: To determine whether cytotoxic PDCs are tolerated in vivo, C57BL/6 mice were dosed in the following manner: PDC-SM2 was dosed on days 0, 3 and 7 at dose levels of 0.5 mg/kg, 1.0 mg/kg, or 2.0 mg/kg; Payload alone was dosed on day 0 only at 0.25 mg/kg, 0.4 mg/kg, or 0.5 mg/kg; vehicle was dosed on day 0, 3 and 7. […] Plasma stability was measured using Cyprotex’s Plasma Stability assay. The samples were at a concentration of 1 µM and were incubated at 0, 15, 30, 60 and 120 minutes. A positive control compound which undergoes degradation in plasma was used. The percent of the compound remaining at each incubation time point was measured.

[2] = Cyprotex Plasma Stability assay, human plasma; assay type: in vitro ADME
Protocol: To determine whether cytotoxic PDCs are tolerated in vivo, C57BL/6 mice were dosed in the following manner: PDC-SM2 was dosed on days 0, 3 and 7 at dose levels of 0.5 mg/kg, 1.0 mg/kg, or 2.0 mg/kg; Payload alone was dosed on day 0 only at 0.25 mg/kg, 0.4 mg/kg, or 0.5 mg/kg; vehicle was dosed on day 0, 3 and 7. […] Payload dose of 0.5 mg/kg was not tolerated, two mice died by day 4 following a single infusion and all mice were sacrificed on day 5 (FIG. 5). […] Plasma stability was measured using Cyprotex’s Plasma Stability assay. The samples were at a concentration of 1 µM and were incubated at 0, 15, 30, 60 and 120 minutes. A positive control compound which undergoes degradation in plasma was used. The percent of the compound remaining at each incubation time point was measured. […] Overall, PDCs offer a novel and unique approach to targeting small molecules to tumor cells.

[3] = system: HCC70 triple negative breast cancer (TNBC) xenografts; test: In vivo efficacy in TNBC xenograft model; design: species or system R2G2 mice
Protocol: In vivo efficacy was further assessed in R2G2 mice bearing HCC70 triple negative breast cancer (TNBC) xenografts. Three doses (1 mg/kg) given once, twice or 3 times per week for 2 weeks of CLR2000045 were assessed. CLR2000045 was administered systemically by injection of the tail vein. Each group contained 10 mice. Tumor volume was monitored for efficacy and body weight for tolerability. Survival was also monitored.
The study was initiated when group mean tumor volume reached ~200 mm^3 (Day 4). CLR2000045 was dosed IV at the following doses: 1 mg/kg on either day 5 and 12 or day 5, 8, 12 and 15 or day 5, 7, 9, 12, 14, and 16. […] Changes in body weight post treatment were measured in the (HCC70) mouse xenograft model (FIG. 11A and FIG. 11B).

[4] = system: normal human dermal fibroblasts (NHDF) cells; test: In vitro uptake of CLR2000045, LC/MS/MS; assay type: cell-based; conditions: 1 µM
Protocol: (§1) In vitro uptake of CLR2000045 was assessed using MCF-7 breast cancer cells and normal human dermal fibroblasts (NHDF) cells and was measured via LC/MS/MS. The breast cancer cells were maintained in minimum essential medium supplemented with 10% FBS. All cells were maintained at 37° C. and 5% CO2. Cells were incubated with 1 µM of drug and reported values were the average of triplicate assessments. In vitro cytotoxicity was determined by Cell Titer-Glo® assay using MCF-7 breast cancer cells and Hs578T triple negative breast cancer cells.

[5] = system: Hs578T triple negative breast cancer cells; test: In vitro cytotoxicity, Cell Titer-Glo assay; assay type: cell-based; conditions: FIG. 7
Protocol: as §1
Between 24 and 48 hours a steady state between uptake and release of the warhead was achieved (FIG. 6). […] Half maximal inhibitory concentration (IC50) was measured in the cell lines (TABLE 2). Plasma stability of CLR2000045 was also measured (TABLE 3).

[6] = system: MCF-7 breast cancer cells; test: In vitro uptake and release of CLR2000045, LC/MS/MS; assay type: cell-based
Protocol: as §1

[7] = system: MCF-7 breast cancer cells; conditions: FIG. 7
Protocol: The breast cancer cells were maintained in minimum essential medium supplemented with 10% FBS. All cells were maintained at 37° C. and 5% CO2. […] In vitro cytotoxicity was determined by Cell Titer-Glo® assay using MCF-7 breast cancer cells and Hs578T triple negative breast cancer cells.

HCT 116 xenografts = test: In vivo efficacy in colorectal cancer xenograft model; design: species or system athymic nude mice; conditions: 10 mg/kg on day 1 and 4
Protocol: CLR180099 was administered intravenously (IV) to healthy C57BL/6 mice to determine the maximum tolerated dose (MTD) as compared to the FLV molecule alone. The vehicle used to administer CLR180099 was PBS in this case, however any pharmaceutically suitable vehicle may be used. Each group contained 5 mice. In vivo efficacy was assessed in athymic nude mice bearing HCT 116 xenografts. The mice were flank models which were developed by injecting the hind flank of the mice with about 1x10^6 of the cells resuspended in […] of 1.2% methylcellulose. The study was initiated when group mean tumor volume reached about 120 mm^3. Tumor volume was measured using calipers - measurements of the length, width, and depth of the tumor were used to calculate the tumor volume. Two doses (2 mg/kg given 2 times or 2 mg/kg given 3 times) of CLR180099 were assessed. Each group contained 10 mice. Tumor volume was monitored for efficacy and body weight for tolerability. Total conjugated CLR180099 and free FLV were determined via mass spectrometry.
The study was initiated when group mean tumor volume reached -120 mm^3 (Day 1). CLR180099 was dosed IV at 2 mg/kg on either day 1 and 4 or day 1, 3 and 5. Docetaxel was dosed at 10 mg/kg on day 1 and 4. […] Five mice per group were dosed at each dose level. Both PDCs were tolerated up to dose of 10 mg/kg with all mice alive and showing no end organ toxicities (TABLE 5). […]

[8] = Table 1, 1 µM, 0-120 minutes, read-out: Human T½

With `C=C(c1ccc(OC)c(NP(=O)(O)OP(=O)(O)OCCNC(=O)c2ccc(CCCCCCCCCCCCCCCCCCOP(=O)([O-])OCC[N+](C)(C)C)cc2)c1)c1cc(C)nc2ccccc12` [CLR2013] as the molecule, how does the half-life at 1 µM ([1]; Table 3, read-out: Mouse t½) read?
The half-life at 1 µM was 1.28 h.

And the half-life at 1 µM ([2]; Table 3, read-out: Human t½)?
The half-life at 1 µM was over 6.67 h.

For `COC(=O)[C@@H]1[C@H](O)[C@]2(O)c3c(OC)cc(OCCCCNC(=O)OCC(C)(C)SSCCCCCCCCCCCCCCCCCCOP(=O)([O-])OCC[N+](C)(C)C)cc3O[C@]2(c2ccc(OC)cc2)[C@H]1c1ccccc1` [CLR1800095], which “stability in mouse plasma (in words)” value [1] is on record?
The value was “some instability”.

And the half-life at 1 µM ([1]; Table 4, read-out: Mouse t½)?
The half-life at 1 µM was 3.32 h.

And the half-life at 1 µM ([2]; Table 4, read-out: Human t½)?
Its half-life at 1 µM is over 6.67 h.

For `C=C(c1ccc(OC)c(NC(=O)OCc2ccc(OP(=O)(O)OP(=O)(O)OCCNC(=O)c3ccc(CCCCCCCCCCCCCCCCCCOP(=O)([O-])OCC[N+](C)(C)C)cc3)cc2)c1)c1cc(C)nc2ccccc12` [CLR2000045], which “eradication of the tumor” value ([3]; 1 mg/kg IV 3 times per week for 2 weeks (highest dose)) is on record?
The value was about 100%.

What about the “tumor volume compared to vehicle control” value ([3]; 1 mg/kg IV, 2 highest dose groups (2x and 3x per week for 2 weeks), p≤0.05 and p≤0.01) of the same molecule?
The value was “statistically significant reduction in tumor volume”.

And the “survival (Kaplan-Meier)” value ([3]; 1 mg/kg three times per week for 2 weeks, vs vehicle (p≤0.001) and 1 time per week (p≤0.05))?
Its value is “significant increase in survival”.

And the “survival (Kaplan-Meier)” value ([3]; 1 mg/kg twice a week for two weeks, vs vehicle (p≤0.05))?
The value was “significant increase”.

What about the “tolerability as measured by body weight loss” value ([3]; two highest doses) of the same molecule?
The value was “well tolerated”.

And the “uptake in normal tissue” value [4]?
The value was “minimal uptake”.

What about the IC50 [5] of the same molecule?
Its IC50 is 51 nM.

What about the “uptake in tumor cells” value ([6]; 1 µM) of the same molecule?
Its value is “significant uptake”.

And the “release of the warhead” value ([6]; at each timepoint)?
Its value is “approximately 50%”.

And the “uptake and release of payload, share of exposed drug” value ([6]; tumor cell lines)?
The value was 20-40%.

And the half-life at 1 µM ([1]; Table 3, read-out: Mouse t½)?
The half-life at 1 µM was over 6.67 h.

What about the IC50 [7] of the same molecule?
Its IC50 is 76 nM.

And the half-life at 1 µM ([2]; Table 3, read-out: Human t½)?
The half-life at 1 µM was over 6.67 h.

With `CC[C@H](C)[C@@H]([C@@H](CC(=O)N1CCC[C@H]1[C@H](OC)[C@@H](C)C(=O)N[C@H](C)[C@@H](O)c1ccccc1)OC)N(C)C(=O)[C@@H](NC(=O)[C@H](C(C)C)N(C)C(=O)OCc1ccc(NC(=O)[C@H](CCCNC(N)=O)NC(=O)[C@@H](NC(=O)c2ccc(CCCCCCCCCCCCCCCCCCOP(=O)([O-])OCC[N+](C)(C)C)cc2)C(C)C)cc1)C(C)C` [PDC-SM3] (X1-V[Cit][PABC][NMeV]V[Dil][Dolaproine]-X2) as the molecule, how does the half-life at 1 µM ([1]; Table 1, 1 µM, 0-120 minutes, read-out: Mouse T½) read?
The half-life at 1 µM was over 6.67 h.

And the half-life at 1 µM [2, 8]?
Its half-life at 1 µM is over 6.67 h.

Which results are given for `CC(C)[N+](C)(CCOC(=O)C1c2ccccc2Oc2ccccc21)C(C)C` [Propantheline, reference compound]?
half-life at 1 µM ([1]; Table 3, read-out: Mouse t½): 0.95 h; half-life at 1 µM [2, 8]: 0.9 h; half-life at 1 µM ([2]; Table 3, read-out: Human t½): 1.28 h; half-life at 1 µM ([2]; Table 4, read-out: Human t½): 0.9 h

With `CC(=O)O[C@@]12CO[C@@H]1C[C@H](O)[C@@]1(C)C(=O)[C@H](O)C3=C(C)[C@@H](OC(=O)[C@H](O)[C@@H](NC(=O)OC(C)(C)C)c4ccccc4)C[C@@](O)([C@@H](OC(=O)c4ccccc4)[C@H]21)C3(C)C` [docetaxel] as the molecule, how does the “deaths in treatment arm” value (HCT 116 xenografts) read?
Its value is “multiple deaths starting at day 18 and ending at day 26”.
